Reference: publication PMC5960625 (Biochemical pharmacology, 2018)

T1: constitutive androstane receptor (hCAR1) (Homo sapiens, UniProt Q14994)
T1 sequence (Q14994 109-352 limits assumed): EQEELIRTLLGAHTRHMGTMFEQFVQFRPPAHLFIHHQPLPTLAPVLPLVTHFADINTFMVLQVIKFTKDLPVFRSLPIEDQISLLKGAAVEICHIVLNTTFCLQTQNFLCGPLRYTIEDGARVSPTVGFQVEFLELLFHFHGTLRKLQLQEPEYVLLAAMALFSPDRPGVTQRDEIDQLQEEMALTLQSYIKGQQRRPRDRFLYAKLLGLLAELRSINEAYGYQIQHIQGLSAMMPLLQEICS

T2: human CAR ligand-binding domain (hCAR1-LBD), purified (human)
T2 chain: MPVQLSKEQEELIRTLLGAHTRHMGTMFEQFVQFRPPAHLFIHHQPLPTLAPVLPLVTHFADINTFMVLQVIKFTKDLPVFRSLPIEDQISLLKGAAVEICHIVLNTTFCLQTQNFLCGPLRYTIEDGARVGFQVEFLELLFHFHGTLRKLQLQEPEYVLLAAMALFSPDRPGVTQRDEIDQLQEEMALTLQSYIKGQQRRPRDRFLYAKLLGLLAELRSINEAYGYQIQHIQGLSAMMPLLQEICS


How the values were obtained:
[1] = target: T1, constitutive androstane receptor (hCAR1); assay: SPR; format: binding
[2] = target: GAL4DBD-SMRT fusion (silencing mediator for retinoid or thyroid hormone receptors); assay: two-hybrid
[3] = target: GAL4DBD-NCoR fusion (nuclear receptor co-repressor); assay: two-hybrid
[4] = target: T2, human CAR ligand-binding domain …; assay: HDX-MS

Molecule | Kd [1] | loss of interaction [2] | loss of interaction [3] | binding result [4]
VP16AD-hCAR1 F217A (full length) (receptor) |  | 50% | 75% | 
ASNLGLEDIIRKALMGSFD [NCoR1-3 cofactor peptide] |  |  |  | binds

The remaining lines, values ahead:

Kd [1] | loss of interaction [2] | loss of interaction [3] | binding result [4] | Molecule
~548 µM |  |  |  | CCOC(=O)Nc1ccc2c(c1)N(C(=O)CN(CC)CC)c1ccccc1CC2 [CINPA1]
 | 50% | 75% |  | VP16AD-hCAR1 Y224A (full length) (receptor)
